Measured values taken from patent US11344504 (MODERNATX, dated 2022).

Molecular target: T1, OX40 receptor on mouse CD4+ T-cells (mouse, UniProt P47741 20-272)
T1 sequence (looked up): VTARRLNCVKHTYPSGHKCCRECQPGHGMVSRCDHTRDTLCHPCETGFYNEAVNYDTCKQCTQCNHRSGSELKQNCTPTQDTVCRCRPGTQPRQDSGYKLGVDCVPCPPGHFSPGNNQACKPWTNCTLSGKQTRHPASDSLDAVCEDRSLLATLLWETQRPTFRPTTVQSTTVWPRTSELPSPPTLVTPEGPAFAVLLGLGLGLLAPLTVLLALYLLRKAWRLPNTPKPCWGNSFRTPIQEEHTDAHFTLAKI
Experiment: cell-based or functional assay

mouse IL-2 production by CD4+ T-cells co-cultured with OX40L-expressing B16F10 cells, fold over control (mock treated or non-translated mRNA): ~2 fold
B1: murine OX40L polypeptide expressed on the surface of B16F10 cells treated with mOX40L_miR-122 mRNA (ligand)
chain: MEGEGVQPLDENLENGSRPRFKWKKTLRLVVSGIKGAGMLLCFIYVCLQLSSSPAKDPPIQRLRGAVTRCEDGQLFISSYKNEYQTMEVQNNSVVIKCDGLYIIYLKGSFFQEVKIDLHFREDHNPISIPMLNDGRRIVFTVVASLAFKDKVYLTVNAPDTLCEHLQINDGELIVVQLTPGYCAPEGSYHSTVNQVPL
